{"source": "patent US20130315920A1", "about": "“Cross Protective Epitopes of Aspergillus Fumigatus and Candida Albicans” (Cell Medica Limited, priority 2010, published 2013)", "molecules": {"B1": {"name": "Crf1: recombinant A. fumigatus GPI-anchored extracellular cell wall glucanase Crf1; given with CpG oligodeoxynucleotide 1862 in mice (protein)", "chain": "QTWSKCNPLEKTCPPNKGLAASTYTADFTSASALDQWEVTAGKVPVGPQGAEFTVAKQGDAPTIDTDFYFFFGKAEVVMKAAPGTGVVSSIVLESDDLDEVDWEVLGGDTTQVQTNYFGKGDTTTYDRGTYVPVATPQETFHTYTIDWTKDAVTWSIDGAVVRTLTYNDAKGGTRFPQTPMRLRLGSWAGGDPSNPKGTIEWAGGLTDYSAGPYTMYVKSVRIENANPAESYTYSDNSGSWQSIKFDGSVDISSSSSVTSSTTSTASSASSTSSKTPSTSTLATSTKATPTPSGTSSGSNSSSSAEPTTTGGTGSSNTGSGSGSGSGSGSSSSTGSSTSAGASATPELSQG"}}, "key": {"[1]": {"biological_target": "recombinant A. fumigatus Crf1 protein with FLAG-Tag (Aspergillus fumigatus)"}, "[2]": {"biological_target": "recombinant A. fumigatus secreted protein peptidase (Aspergillus fumigatus)"}, "HLA-DRB1*03, 04 and 13": {"tested_on": "HLA-DRB1*03, 04 and 13", "assay": "Minimal epitope analysis with 11-mer peptides", "type": "cell-based, human", "conditions": "data not shown", "text": "To evaluate the utility of the Crf1 p41 epitope for potential clinical application, we defined the HLA restriction of Crf1 p41-specific CD4^+ T clones from different donors by stimulation with peptide-pulsed partially matched LCLs. […] As presentation of the Crf1 p41 peptide could also be mediated by other MHC class II alleles, we verified the HLA restriction by stimulation of PBMC from additional donors.\nA peptide library covering the complete Crf1 sequence consisting of 94 15-mer peptides overlapping by […] (aa) was divided into sub-pools of 10 peptides and 94 single peptides (p1-p94) (PANATecs). 3 11-mer peptides of p40/41 overlapping by 2aa ([…], […], HTYTIDWTKDA) were obtained from JPT Peptide Technologies."}, "[3]": {"biological_target": "PE-conjugated Crf1 p41-specific HLA-DRB1*0401 MHC class II tetramer (Aspergillus fumigatus; human)", "assay": "flow cytometry, tetramer staining of T-cell lines expanded for 14 days"}, "[4]": {"tested_on": "T-cell lines from PBMC of healthy donors", "assay": "IFN-γ ELISA of T-cell lines stimulated with recombinant A. fumigatus proteins", "type": "cell-based, human", "conditions": "5 μg/ml protein", "text": "As the identification of potential protective fungal antigens is rather intricate due to the extensiveness of fungal genomes, we analyzed 6 different A. fumigatus recombinant proteins based on their previously reported immunogeneic reactivity in mice and humans^7,10. […] By contrast, GPI-anchored extracellular cell wall glucanase Crf1 and secreted protein peptidase induced high IFN-γ in 6 of 7 and 5 of 10 tested donors, respectively. The response was mediated by CD4^+ TH1 cells, as MHC class II blocking antibody nearly abrogated IFN-γ release (data not shown). Due to the broad response and the sequence similarity to the C. albicans orthologue Crh1, we focused in subsequent experiments on the protein Crf1. By epitope mapping of 7 healthy individuals with different MHC class II alleles, we identified 10 potential candidate epitopes (Table 1). Based on the results obtained by epitope mapping, the probability of antigen presentation by certain MHC class II alleles assessed by epitope prediction^11, previously reported immunogeneic reactivity^12 and sequence similarity to the C. albicans homologue Crh1, we then generated CD4^+ TH1 T-cell clones specific for the peptides p1, p22, p27, p41, p48, p59, p69 and p84 (FIG. 1a and Table 1).\nA. fumigatus superoxide dismutase^34, catalase^35, peptidase^36 and 1,3-beta-glucanosyl-transferase Gel1^30 were produced in the yeast Pichia pastoris as described^37. Extracellular cell wall glucanase Crf1^37 (cDNA provided by Utz Reichard) and the major allergen and cytotoxin AspF1^10 were expressed with FLAG-Tags in the human cell line phoenix GALV^38.\nFor analysis of recombinant proteins and epitope mapping, T-cell lines were generated by incubation of 1×10^7 PBMC per well in 6-well cell culture plates with 5 μg/ml protein or peptide for 7d in the presence of 5 U/ml IL-2 (Proleukin, Chiron). Antigen specificity was analyzed by IFN-γ ELISA^42 after restimulation with autologous monocytes incubated overnight with 5 μg/ml protein in a responder to stimulator (R:S) ratio of 5:1. Epitope mapping was performed by IFN-γ ELISPOT^39 after stimulation with peptide-pulsed autologous DC at a R:S ratio of 10:1."}, "C. albicans": {"tested_on": "C. albicans", "assay": "Vaccination of mice before intragastric C. albicans infection", "type": "in vivo, BALB/c mice", "experimental": "A. fumigatus Crf1 protein mediates cross-protection to C. albicans. Mice were injected intranasally with resting A. fumigatus conidia 14 days before infection, or with purified Crf1 protein and murine CpG oligodeoxynucleotide 1862 14, 7 and 3 days before intragastric infection with C. albicans. Note (a) the reduced inflammatory cell recruitment and acanthosis in mice vaccinated with A. fumigatus conidia or Crf1 protein as opposed to control mice shown in FIG. 5a and c and (b) the increase in protective TH1 and regulatory T-cell transcription factors and cytokine levels. Shown are fungal growth (CFU/organ, mean±SE), stomach histology and transcription factor and cytokine mRNA expression in CD4^+ T-cells from mesenteric lymph nodes a week after infection with C. albicans. Shown are results pooled from 2 experiments (6 animals/group). Bars indicate SE. P, vaccinated animals versus control. (c) Proliferation of purified CD4^+ spleen cells from untreated mice or animals vaccinated with A. fumigatus or C. albicans in response to control DC, anti-CD3E antibody, heat-inactivated A. fumigatus or C. albicans or A. fumigatus Crf1 p41 and p22 peptide. The results are expressed as mean cpm±SEM of triplicate cultures. P, stimulated versus control DC.\nMice were infected with 2×10^7 resting A. fumigatus conidia intranasally^7,45 and with 10^8C. albicans intragastrically^13. For co-infection, mice were infected a week before the subsequent infection. In the vaccination model, mice were injected intranasally with 2×10^7 Aspergillus resting conidia/20 μl saline once, 14d before infection, or with 5 μg purified Crf1p antigen^7 and 10 nM murine CpG oligodeoxynucleotide 1862, administered 14 d, 7 d and 3 d before intragastric C. albicans infection^7. Mice were monitored for survival (MST, days) and fungal growth (CFU/organ expressed as mean±SE). Mice dying of fungal challenge routinely underwent necropsy for histopathological confirmation of infection^7. […]"}}}
{"molecule": "T-cell lines from PBMC of healthy donors, raised with the respective recombinant A. fumigatus protein (cells without a defined receptor)", "values": [{"measurement": "IFN-γ (ELISA) (of 7 tested donors)", "setting": "[1]", "value": 6}, {"measurement": "IFN-γ (ELISA) (of 10 tested donors)", "setting": "[2]", "value": 5}]}
{"molecule": "HTYTIDWTKDA (peptide of A. fumigatus Crf1)", "values": [{"measurement": "Minimal epitope", "setting": "HLA-DRB1*03, 04 and 13", "value": "is the minimal epitope of Crf1 p41 for all 3 HLA alleles"}]}
{"molecule": "Crf1 p41-specific CD4^+ T-cell lines expanded for 14 days (cells without a defined receptor)", "values": [{"measurement": "frequency of antigen-specific cells as determined by tetramer (median)", "setting": "[3]", "value": 50.6, "unit": "%"}]}
{"molecule": "B1", "values": [{"measurement": "donors with high IFN-γ of tested donors", "setting": "[4]", "value": "6 of 7"}, {"measurement": "Tbet/Foxp3 CD4+ T-cells and cytokines in mesenteric lymph nodes", "setting": "C. albicans; a week after infection with C. albicans", "value": "activation of Tbet^+/Foxp3^+ CD4^+T-cells and their respective cytokines, IFN-γ and IL-10, in mesenteric lymph nodes"}, {"measurement": "Protection against lethal infection", "setting": "C. albicans; vaccinated mice", "value": "protected against lethal infection with C. albicans"}, {"measurement": "Fungal burden and inflammatory pathology in the stomach", "setting": "C. albicans; vaccination intranasally before intragastric C. albicans infection, Crf1 protein with CpG as adjuvant", "value": "both vaccination strategies reduced the fungal burden and inflammatory pathology in the stomach of mice with candidiasis"}]}
